Columns and labels:
[1] = biological target: serum fucosylated PSA (prostate specific antigen) (human) (UniProt P07288); assay: sandwich ELISA, anti-PSA antibody capture, biotin-lectin detection, lectin reaction pH 7.4; serum of Prostate cancer 4
[2] = biological target: serum fucosylated PSA (prostate specific antigen) (human) (UniProt P07288); assay: sandwich ELISA, anti-PSA antibody capture, biotin-lectin detection, lectin reaction pH 7.4; serum of Healthy 1
[3] = biological target: serum fucosylated PSA (prostate specific antigen) (human) (UniProt P07288); assay: sandwich ELISA, anti-PSA antibody capture, biotin-lectin detection, lectin reaction pH 9.6; serum of Prostate cancer 4
[4] = biological target: serum fucosylated PSA (prostate specific antigen) (human) (UniProt P07288); assay: sandwich ELISA, anti-PSA antibody capture, biotin-lectin detection, lectin reaction pH 9.6; serum of Healthy 1

Substance “Amanita muscaria lectin (AML), biotin-labeled” has an AML reaction value [1] of 141 U/mL, an AML reaction value [2] of 21.2 U/mL and an AML reaction value [3] of 151 U/mL.

For “Naematoloma sublateritium lectin (NSL), biotin-labeled”, the NSL reaction value [4] was 42.3 U/mL, the NSL reaction value [1] was 400 U/mL and the NSL reaction value [2] was 178 U/mL. It also gave an NSL reaction value [3] of 283 U/mL.

Substance “Pholiota squarrosa lectin peptide (PhoSL peptide), biotin-labeled” has a PhoSL peptide reaction value [1] of 102 U/mL, a PhoSL peptide reaction value [2] of 1 U/mL and a PhoSL peptide reaction value [3] of 234 U/mL.

In the case of “Stropharia rugosoannulata lectin (SRL), biotin-labeled”, the SRL reaction value [4] is reported as 16.8 U/mL, the SRL reaction value [1] is reported as 146 U/mL and the SRL reaction value [2] is reported as 20 U/mL. For the same substance, the SRL reaction value [3] was 234 U/mL.

— patent publication US20200264182A1, “METHOD FOR DETECTING PROSTATE CANCER” (J-OIL MILLS, INC., priority 2017, published 2020)
